In one data set the test system is DENV-1. Nature of the data set: ADE / protection against DENV-1 by rabbit antisera (CPE/cell death, 4G2 immunostain). The note with it: in vitro challenge. Format: cell-based, dengue virus.
The next data set deals with DENV-4. Nature of the data set: ADE / protection against DENV-4 by rabbit antisera (CPE/cell death, 4G2 immunostain). Format: cell-based, dengue virus. The note with it: in vitro challenge.
Another data set deals with T1, DENV-1 antigen (Dengue virus type 1, UniProt P17763, A649T/F617I/M577V/S619T/V660I).
T1 construct: made in house; host or cells: E. coli BL21(DE3)-pRARE
The experiment in a line: Serological cross reactivity matrix (ELISA), DENV-1 antigen. The data set is classed as binding. The following applies: Immune-2 rabbit sera. The text has this:
(§1) FIG. 10B-FIG. 10C show exemplary results of a serological cross reactivity matrix. Immune-2 sera from rabbits immunized with the 6 antigens were screened by ELISA for homologous titers. Samples with highest titers were examined for immunoreactivity with all antigens. […] DENV-1 Ag is recognized by anti-DENV-3 and anti-ZIKV antisera. Conversely, anti-DENV-3 antisera recognizes ZIKV antigen. Anti-ZIKV antisera recognizes WNV antigen very strongly.

The target in a further data set is T2, ZIKV antigen (Zika virus, UniProt Q32ZE1).
T2 construct: made in house; host or cells: E. coli BL21(DE3)-pRARE
The experiment in a line: Serological cross reactivity matrix (ELISA), ZIKV antigen. The data set is classed as binding. The following applies: Immune-2 rabbit sera.
Description: as §1
For orientation: An ELISA detects its analyte on a solid surface through an enzyme-linked reagent.

In a further data set the test system is DENV-3. The experiment in a line: Seroconversion, DENV-3-specific IgG titers. The following applies: three immunization regimes of Table 8. Format: in vivo, rabbits. The method, then: (§2) Pre-immune test-bleeds are first obtained from adult New Zealand White rabbits via venipuncture of the marginal vein of the ear on Day 1. The rabbits are immunized intramuscularly in the flank region with (a) 10 μg of antigen in 0.2 mL saline (n=4 for non-adjuvanted, antigen+saline control cohort), or (b) 10 μg of antigen plus 100 μg of adjuvant in 0.2 mL saline (n=4 for antigen+adjuvant test cohorts). An aqueous formulation for all adjuvants and antigens is ensured. Animals are immunized on Days 1, 15, and 28. A final test-bleed is performed via the marginal vein of the ear on Day 38. Sera may be banked at −80° C. for further analysis.
(§3) Rabbits (n=4/cohort) were immunized with 10 μg each antigen per dose as described in the Standardized Rabbit Model of Immunogenicity modified as shown in Table 8.

The next data set has as its system DENV-2. The experiment in a line: Seroconversion, DENV-2-specific IgG titers. The note with it: three immunization regimes of Table 8. The data set is classed as in vivo, rabbits. As to the method: as §2, §3

Entries after “also recorded” stand apart in the source; their conditions may differ.

T2 sequence (Q32ZE1 582-689, looked up, natural form): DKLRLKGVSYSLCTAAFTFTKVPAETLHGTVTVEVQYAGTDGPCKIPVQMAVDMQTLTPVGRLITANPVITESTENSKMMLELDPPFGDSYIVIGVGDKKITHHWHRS
T1 sequence (P17763 571-673, looked up, stated change not applied): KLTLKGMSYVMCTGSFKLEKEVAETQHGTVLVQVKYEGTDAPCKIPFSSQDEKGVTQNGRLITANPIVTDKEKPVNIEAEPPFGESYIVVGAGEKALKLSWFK

B1: DENV-3: DENV-3 E-glycoprotein subunit antigen, SEQ ID NO: 4 (protein)
chain: SNALKGMSYAMCTNTFVLKKEVSETQHGTILIKVEYKGEDAPCKIPFSTEDGQGKAHNGRLITANPVVTKKEEPVNIEAEPPFGESNIVIGIGDNALKINWYKK
modifications: Dengue virus 3
As for B1, the “protection / neutralization against DENV-1 (heterologous)” value with DENV-1 is “neutralizes; also recorded: prominent heterologous protection”. Moreover, the “protection / neutralization against DENV-4 (heterologous)” value with DENV-4 was “neutralizes”. Further, the “cross-reactivity of antisera with DENV-1 antigen” value in the data set with DENV-1 antigen is “Significant cross-reactivity; also recorded: recognized”. Moreover, the “cross-reactivity of antisera with ZIKV antigen” value with ZIKV antigen is recorded as “reciprocal cross-reactivity was evident; also recorded: recognizes”.

B2: SGp(L)-DENV-3: SGp(L) fusion of DENV-3 antigen, SEQ ID NO: 40 (protein)
chain: MHHHHHHSTSLAEAKVLANRELDKYGVSDYYKNLINNAKTVEGVKALIDEILAALPKGTLKGMSYAMCTNTFVLKKEVSETQHGTILIKVEYKGEDAPCKIPFSTEDGQGKAHNGRLITANPVVTKKEEPVNIEAEPPFGESNIVIGIGDNALKINWYKK
For the molecule B2, the “seroconversion (DENV-3-specific IgG titers)” value with DENV-3 is given as “equivalence between all three immunization regimes”.

B3: SGp(L)-DENV-2: SGp(L) fusion of DENV-2 antigen, SEQ ID NO: 39 (protein)
chain: MHHHHHHSTSLAEAKVLANRELDKYGVSDYYKNLINNAKTVEGVKALIDEILAALPKGTQLKGMSYSMCTGKFKVVKEIAETQHGTIVVRVQYEGDGSPCKIPFEIMDLEKRHVLGRLITVNPIVTEKDSPVNIEAEPPFGDSYIIIGVEPGQLKLSWFKK
Take B3: the “seroconversion (DENV-2-specific IgG titers)” value in the data set on DENV-2 was “equivalence between all three immunization regimes”.
